The labels stand for the following.
T1: recombinant cynomolgus monkey (Macaca fascicularis) transferrin receptor 1 (cynomolgus monkey (Macaca fascicularis), UniProt Q5RDH6 87-760 (Pongo abelii entry), limits assumed)
T1 construct: also called cTfR1; cyno TfR1
T1 chain: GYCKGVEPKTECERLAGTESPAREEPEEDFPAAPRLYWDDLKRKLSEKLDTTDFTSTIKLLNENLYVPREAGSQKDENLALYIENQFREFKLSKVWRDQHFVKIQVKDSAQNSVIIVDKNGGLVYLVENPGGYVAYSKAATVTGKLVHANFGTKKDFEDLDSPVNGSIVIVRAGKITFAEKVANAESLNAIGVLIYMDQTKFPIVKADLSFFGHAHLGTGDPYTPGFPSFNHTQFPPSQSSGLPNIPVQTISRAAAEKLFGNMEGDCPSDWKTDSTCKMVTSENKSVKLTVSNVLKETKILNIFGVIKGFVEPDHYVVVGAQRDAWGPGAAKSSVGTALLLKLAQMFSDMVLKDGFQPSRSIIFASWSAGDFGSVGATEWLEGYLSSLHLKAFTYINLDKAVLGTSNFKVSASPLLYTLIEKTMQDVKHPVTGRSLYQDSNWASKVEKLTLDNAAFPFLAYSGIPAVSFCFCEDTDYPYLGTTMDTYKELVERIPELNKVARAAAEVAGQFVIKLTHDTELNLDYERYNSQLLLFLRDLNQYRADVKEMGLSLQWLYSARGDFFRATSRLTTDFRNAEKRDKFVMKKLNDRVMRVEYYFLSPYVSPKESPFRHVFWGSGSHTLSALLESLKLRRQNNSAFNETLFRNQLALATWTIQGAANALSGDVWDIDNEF

B1: 3M12 (VH3/Vk2) Fab conjugated to DMPK-targeting oligonucleotide ASO300 (Fab, V domains shown)
VH: QVQLQESGPGLVKPSQTLSLTCSVTGYSITSGYYWNWIRQPPGKGLEWMGYITFDGANNYNPSLKNRVSISRDTSKNQFSLKLSSVTAEDTATYYCTRSSYDYDVLDYWGQGTTVTVSS
VL: DIQMTQSPSSLSASVGDRVTITCRASQDISNFLNWYQQKPGQPVKLLIYYTSRLHSGVPSRFSGSGSGTDFTLTISSLQPEDFATYFCQQGHTLPYTFGQGTKLEIKR
modifications: ASO300 oligonucleotide covalently conjugated via linker of Formula (C); residue and chain not stated
notes: also called 3M12 (VH3/Vk2) conjugate; DMPK oligo conjugate
B2: 3M12 (VH4/Vk3) Fab conjugated to DMPK-targeting oligonucleotide ASO300 (Fab, V domains shown)
VH: B1 VH with S23T, M49I
VL: B1 VL with F87Y
modifications: ASO300 oligonucleotide covalently conjugated via linker of Formula (C); residue and chain not stated
notes: also called 3M12 (VH4/Vk3) conjugate; DMPK oligo conjugate
B3: 3A4 (VH3-N54T/Vk4) Fab conjugated to DMPK-targeting oligonucleotide ASO300 (Fab, V domains shown)
VH: EVQLVQSGSELKKPGASVKVSCTASGFNIKDDYMYWVRQPPGKGLEWIGWIDPETGDTEYASKFQDRVTVTADTSTNTAYMELSSLRSEDTAVYYCTLWLRRGLDYWGQGTLVTVSS
VL: DIVMTQSPLSLPVTPGEPASISCRSSKSLLHSNGYTYLFWFQQRPGQSPRLLIYRMSNLASGVPDRFSGSGSGTDFTLKISRVEAEDVGVYYCMQHLEYPFTFGGGTKVEIKR
modifications: ASO300 oligonucleotide covalently conjugated via linker of Formula (C); residue and chain not stated
notes: also called 3A4 (VH3-N54T/Vk4) conjugate; DMPK oligo conjugate
B4: 3A4 (VH3-N54S/Vk4) Fab conjugated to DMPK-targeting oligonucleotide ASO300 (Fab, V domains shown)
VH: B3 VH with T55S
VL: B3 VL
modifications: ASO300 oligonucleotide covalently conjugated via linker of Formula (C); residue and chain not stated
notes: also called 3A4 (VH3-N54S/Vk4) conjugate; DMPK oligo conjugate
B5: 5H12 (VH5-C33Y/Vk4) Fab conjugated to DMPK-targeting oligonucleotide ASO300 (Fab, V domains shown)
VH: QVQLVQSGAEVKKPGASVKVSCKASGYSFTDYYINWVRQAPGQGLEWMGWIYPGSGNTRYSERFKGRVTITRDTSASTAYMELSSLRSEDTAVYYCAREDYYPYHGMDYWGQGTLVTVSS
VL: DIVMTQSPDSLAVSLGERATINCRASESVDGYDNSFMHWYQQKPGQPPKLLIFRASNLESGVPDRFSGSGSGTDFTLTISSLQAEDVAVYYCQQSSEDPWTFGQGTKLEIKR
modifications: ASO300 oligonucleotide covalently conjugated via linker of Formula (C); residue and chain not stated
notes: also called DMPK oligo conjugate
B6: humanized anti-TfR Fab 5H12 (VH5-C33Y/Vk4) (Fab, V domains shown)
VH: B5 VH
VL: B5 VL
notes: unconjugated; also called 5H12 VH5 (C33Y*)/Vκ4
B7: humanized anti-TfR Fab 5H12 (VH5-C33Y/Vk3) (Fab, V domains shown)
VH: B5 VH
VL: B5 VL with M4L, G72R
notes: unconjugated; also called 5H12 VH5 (C33Y*)/Vκ3
B8: humanized anti-TfR Fab 5H12 (VH5-C33D/Vk4) (Fab, V domains shown)
VH: B5 VH with Y33D
VL: B5 VL
notes: unconjugated; also called 5H12 VH5 (C33D*)/Vκ4
B9: humanized anti-TfR Fab 3M12 (VH3/Vk2) (Fab, V domains shown)
VH: B1 VH
VL: B1 VL
notes: unconjugated; also called 3M12 VH3/Vκ2
B10: humanized anti-TfR Fab 3M12 (VH4/Vk2) (Fab, V domains shown)
VH: B1 VH with S23T, M49I
VL: B1 VL
notes: unconjugated; also called 3M12 VH4/Vκ2
B11: humanized anti-TfR Fab 3M12 (VH4/Vk3) (Fab, V domains shown)
VH: B1 VH with S23T, M49I
VL: B1 VL with F87Y
notes: unconjugated; also called 3M12 VH4/Vκ3
B12: humanized anti-TfR Fab 3M12 (VH3/Vk3) (Fab, V domains shown)
VH: B1 VH
VL: B1 VL with F87Y
notes: unconjugated; also called 3M12 VH3/Vκ3
B13: humanized anti-TfR Fab 3A4 (VH3-N54T/Vk4) (Fab, V domains shown)
VH: B3 VH
VL: B3 VL
notes: unconjugated; also called 3A4 VH3 (N54T*)/Vκ4
B14: humanized anti-TfR Fab 3A4 (VH3/Vk4) (Fab, V domains shown)
VH: B3 VH with T55N
VL: B3 VL
notes: unconjugated; also called 3A4 VH3 /Vκ4
B15: humanized anti-TfR Fab 3A4 (VH3-N54S/Vk4) (Fab, V domains shown)
VH: B3 VH with T55S
VL: B3 VL
notes: unconjugated; also called 3A4 VH3 (N54S*)/Vκ4

For 15 molecules, EC50 results are on record in patent publication US20230044278A1 (DYNE THERAPEUTICS, published 2023).

For orientation: EC50 means the midpoint of the concentration-response curve.

Positions count from the first letter of the chain named. Numbers in names are those of the source.

For one test, the target named is T2, recombinant human transferrin receptor 1 (human, UniProt P02786 89-760).
T2 construct: also called hTfR1; huTfR1
Nature of the test: ELISA, Fab-ASO300 conjugate; printed as 'DMPK oligo conjugate binding to hTfR1 (nM)'. A general note: ELISA stands for enzyme-linked immunosorbent assay.
Target sequence in this assay (P02786 89-760 limits assumed): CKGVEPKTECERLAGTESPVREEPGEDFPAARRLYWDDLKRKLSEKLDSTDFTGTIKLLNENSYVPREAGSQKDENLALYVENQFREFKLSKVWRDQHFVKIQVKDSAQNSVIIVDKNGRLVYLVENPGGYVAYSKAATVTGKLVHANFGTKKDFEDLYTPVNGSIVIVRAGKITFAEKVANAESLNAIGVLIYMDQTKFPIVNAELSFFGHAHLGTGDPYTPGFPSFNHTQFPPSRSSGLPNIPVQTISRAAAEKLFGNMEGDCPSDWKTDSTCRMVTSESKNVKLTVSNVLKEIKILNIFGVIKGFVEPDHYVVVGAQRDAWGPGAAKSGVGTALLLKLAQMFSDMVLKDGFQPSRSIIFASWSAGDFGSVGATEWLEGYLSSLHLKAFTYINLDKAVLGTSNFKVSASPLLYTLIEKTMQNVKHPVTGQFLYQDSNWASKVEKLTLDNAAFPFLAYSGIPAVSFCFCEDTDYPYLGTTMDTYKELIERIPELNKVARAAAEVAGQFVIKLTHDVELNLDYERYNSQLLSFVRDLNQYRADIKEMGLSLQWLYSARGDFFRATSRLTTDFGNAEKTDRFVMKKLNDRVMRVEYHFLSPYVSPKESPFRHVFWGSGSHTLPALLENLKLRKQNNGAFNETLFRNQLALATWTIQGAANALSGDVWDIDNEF
B1: the EC50 came out at 1.14 nM.

For the molecule B2, the EC50 is 1.18 nM.

As to B3, the EC50 is 2.22 nM.

With B4, the EC50 was determined as 2.71 nM.

Another test concerns the target T1, recombinant cynomolgus monkey (Macaca …). In words: ELISA, Fab-ASO300 conjugate; printed as 'DMPK oligo conjugate binding to cyno TfR1 (nM)'.
For the molecule B5, the EC50 was 13.9 nM.

B1: the EC50 was determined as 2.26 nM.

Turning to B2, the EC50 came to 1.85 nM.

As for B3, the EC50 was 5.12 nM.

Regarding B4, the concentration giving a half-maximal response (EC50) was determined as 4.1 nM.

A further test has as its target T2, recombinant human transferrin receptor 1. In words: ELISA, thermal stability d9 (after 9 days at high temperature); printed as 'Binding affinity hTfR1 d9 (nM)'. Here is the method: (§1) To measure binding of humanized anti-TfR antibodies to TfR1, ELISAs were conducted. High binding, black, flat bottom, 96 well plates (Corning #3925) were first coated with 100 μL/well of recombinant huTfR1 at […] in PBS and incubated at 4° C. overnight. Wells were emptied and residual liquid was removed. Blocking was conducted by adding 200 μL of 1% BSA (w/w) in PBS to each well. Blocking was allowed to proceed for 2 hours at room temperature on a shaker at 300 rpm. After blocking, liquid was removed and wells were washed three times with 300 μL of TBST. Anti-TfR1 antibodies were then added in 0.5% BSA/TBST in triplicate in an 8 point serial dilution (dilution range 5 μg/mL-5 ng/mL). A positive control and isotype controls were also included on the ELISA plate. The plate was incubated at room temperature on an orbital shaker for 60 minutes at 300 rpm, and the plate was washed three times with 300 μL of TBST. Anti-(H+L)IgG-A488 (1:500) (Invitrogen #A11013) was diluted in 0.5% BSA in TBST, and 100 μL was added to each well. The plate was then allowed to incubate at room temperature for 60 minutes at 300 rpm on orbital shaker. The liquid was removed and the plate was washed four times with 300 μL of TBST. Absorbance was then measured at 495 nm excitation and […] (with a 15 nm bandwidth) on a plate reader. Data was recorded and analyzed for EC₅₀. […] ELISA measurements were conducted using cynomolgus monkey (Macaca fascicularis) TfR1 (cTfR1) according to the same protocol described above for hTfR1, and results are shown in FIGS. 1B, 1D, and 1F.
Target sequence in this assay (P02786 89-760 limits assumed): as above
On to B6, for which the EC50 worked out at 1730 nM.

B7: the half-maximal effective concentration (EC50) amounted to 71.9 nM.

In the case of B8, the EC50 is 92.3 nM.

Take B9: the EC50 is 0.98 nM.

In the case of B10, the concentration giving a half-maximal response (EC50) came to 0.5 nM.

For B11, the EC50 was 0.28 nM.

Regarding B12, the EC50 is 1.49 nM.

As for B13, the EC50 came out at 0.4 nM.

As to B14, the concentration giving a half-maximal response (EC50) turned out to be 0.46 nM.

With B15, the EC50 worked out at 0.65 nM.

Another test concerns the target T1, recombinant cynomolgus monkey (Macaca …). In words: ELISA, thermal stability d9 (after 9 days at high temperature); printed as 'Binding affinity cyno TfR1 d9 (nM)'. Here is the method:
The selected Fabs were analyzed for their properties binding to TfR1 by kinetic analysis. For conjugates shown in Table 8 and Table 9, the selected humanized Fabs were conjugated to a DMPK-targeting oligonucleotide ASO300.
as §1
As to B6, the EC50 amounted to 0.26 nM.

As for B7, the EC50 worked out at 0.69 nM.

With B8, the EC50 was 0.63 nM.

In the case of B9, the EC50 was determined as 19.5 nM.

In the case of B10, the EC50 turned out to be 5.01 nM.

As to B11, the EC50 came out at 16.4 nM.

Consider B12, for which the EC50 turned out to be 15.6 nM.

B13: the EC50 was found to be 128 nM.

As for B14, the EC50 turned out to be 878 nM.

Turning to B15, the EC50 turned out to be 248 nM.

A further test has as its target T2, recombinant human transferrin receptor 1. Nature of the test: ELISA, Fab-ASO300 conjugate; printed as 'DMPK oligo conjugate binding to hTfR1 (nM)'; Table 9 (thermal stability table); DMPK oligo conjugate, hTfR1.
In the case of B5, the EC50 was found to be 13.9 nM.
